Measured values taken from FireProtDB (doi:10.1016/0168-1656(93)90129-b).

Conditions: Escherichia coli (strain K12), CD, reversible: yes, whole UniProt chain shown; for Tm: Thermal; for denaturant midpoint (higher = more stable) / unfolding free energy: 25 °C, GdnHCl

B1: Ribonuclease HI wild type, P0A7Y4 (protein)
chain: MLKQVEIFTDGSCLGNPGPGGYGAILRYRGREKTFSAGYTRTTNNRMELMAAIVALEALKEHCEVILSTDSQYVRQGITQWIHNWKKRGWKTADKKPVKNVDLWQRLDAALGQHQIKWEWVKGHAGHPENERCDELARAAAMNPTLEDTGYQVEV
Tm (pH 3, glycine-HCl 10 mM): 49.4 °C | denaturant midpoint (higher = more stable) (pH 5.5, Sodium acetate 20 mM): 1.79 M | unfolding free energy (pH 5.5, Sodium acetate 20 mM): 9.21 kcal/mol | Tm (pH 5.5, Sodium acetate 20 mM): 52.7 °C | Tm (pH 7.8, Sodium phosphate 20 mM): 50.2 °C | denaturant midpoint (higher = more stable) (pH 8.2, Tris-HCl 20 mM): 1.65 M | unfolding free energy (pH 8.2, Tris-HCl 20 mM): 8.49 kcal/mol
